B1: antibody 3 (antibody, V domains shown)
VH: QVTLKESGPGILQPSQTLSLTCSFSGFSLTTFAMGIGWVRQPSGKGLEWLAHIWWDGEKYNNPVLKSRLTISKDTSKNQVFLRIANVDTPDTATYYCARISSIYYIIDNWGQGTSVTVSS
VL: DIVLTQSPATLSVTPGHSVSLSCRASQSISNNLHWYQKKSHESPRLLIKYVSQSISGIPSRFSGSGSGTDFTLSINSVETEDFGMYFCQQSYNWPLTFGAGTKLELK
notes: mouse IgG, kappa light chain; also called clone #3; purified antibody 3
B2: antibody 34 (antibody, V domains shown)
VH: QVTLKESGPGILQPSQTLSLTCSFSGFSLSTFSLGVGWIRQSSGKGLEWLAHIWWDDEKYYNPALKSRLTISKDTSKNQVFLKIANVDAADTATYYCARAYYSKSYYALDYWGQGTSVTVSS
VL: DIQMTQSPSSLSASLGERVSLTCRASQEISGYLSWLQQKPDGTIKRLIYAASTLDSGVPKRFSGSRSGSDYSLAISSLESEDFADYYCLQYANFPFTFGSGTKLEIK
notes: mouse IgG, kappa light chain; also called clone #34; purified antibody 34
B3: antibody 5 (antibody, V domains shown)
VH: QVTLKESGPGILQPSQTLSLTCSFSGFSLSTFGMGVGWIRQPSGKGLEWLAHIWWDDEKYYNSALKSRLTISKATSKNQAFLKIANVDTADTATYYCARISNYGSNYWYFNVWGTGTTVTVSS
VL: QVVLTQSPALMSASPGEKVTMTCSAGSSVSCMYWYQQKPGSSPRVLIYDTSNLASGVPARFTGSGSGTSYSLTISRMEAEDAASYYCQQWNSYPLTFGAGTKLELK
notes: mouse IgG, kappa light chain; also called clone #5; purified antibody 5
B4: antibody 43 (antibody, V domains shown)
VH: B3 VH with T3A, P42S, H52N, E58D, S63P, A74D, T75A, S101G, N111D
VL: QIVLTQSPAIMSASPGERVTMTCSANSRISYMYWYQQKPGSSPRLLIYDTSNLASGVPVRFSGSGSGTSYSLTISRMEAEDAATYNCQQWSSYPLTFGAGTKLELK
notes: mouse IgG, kappa light chain; also called clone #43; purified antibody 43
B5: antibody 42 (antibody, V domains shown)
VH: B3 VH with F24L, M34R, S63P, A74D, A80V, K83R, S101Q, N111D
VL: B4 VL with Q1L, R18K, S24G, N26T, Y33F, L45V, M77V, A82V, N86Y, S91N
notes: mouse IgG, kappa light chain; also called clone #42; purified antibody 42
B6: antibody 44 (antibody, V domains shown)
VH: B3 VH with G44E, E58D, S63P, A74D, A80I, A85T, D91E, A98S, S101G, N111D
VL: QIVLTQSPAVMSASPGEKVTMTCTASSSVYYMYWYQQTPGSSPRLLIYDTSNLASGVPVRFSGSGSGTSYSLTISRMEAEDAATYYCQQWNTYPLTFGAGTKLELK
notes: mouse IgG, kappa light chain; also called clone #44; purified antibody 44
B7: antibody 22 (antibody, V domains shown)
VH: B3 VH with A80V
VL: B3 VL with C31Y, S84T
notes: mouse IgG, kappa light chain; also called clone #22; purified antibody 22
B8: antibody 50 (antibody, V domains shown)
VH: QVQLQQSGAELVRPGASVKVSCKASGYAFSNYLIEWVKQRPGQGLEWIGVINPGSGFTKYNEKFKGKATLTADKSSSTAYMQLSSLTSEDSAVYFCARGLYRAMDYWGQGTSVTVSS
VL: DIQMTQSPASQSASLGESVTITCLASQTIGTWLAWYQQKPGKSPQLLIYAAASLADGVPSRFSGGGSGTKFSFKISSLQAEDFVNYYCQQIYSTPYTFGGGTKLEIK
notes: mouse IgG, kappa light chain; also called clone #50; purified antibody 50
B9: antibody 16 (antibody, V domains shown)
VH: QVTLKESGPGILQPSQTLSLTCSFSGFSLSTFALGVGWIRQPSGRGLEWLAHIWWDDDKYYNPALKSRLTISKDTSKNHVFLKIANVDTADTATYYCARITTYYYGMDYWGQGTSVTVSS
VL: B1 VL with T5S, H17D, S22F, S30G, N32H, K38Q, K39E, E42A, V51A
notes: mouse IgG, kappa light chain; also called clone #16; purified antibody 16

Changes are numbered by the printed parent chain.

One experiment addresses T1, hiR2-FL-L539A-T7 (human, UniProt Q6PJF5 1-856).
T1 construct: on MEF-DKO cells
T1 sequence: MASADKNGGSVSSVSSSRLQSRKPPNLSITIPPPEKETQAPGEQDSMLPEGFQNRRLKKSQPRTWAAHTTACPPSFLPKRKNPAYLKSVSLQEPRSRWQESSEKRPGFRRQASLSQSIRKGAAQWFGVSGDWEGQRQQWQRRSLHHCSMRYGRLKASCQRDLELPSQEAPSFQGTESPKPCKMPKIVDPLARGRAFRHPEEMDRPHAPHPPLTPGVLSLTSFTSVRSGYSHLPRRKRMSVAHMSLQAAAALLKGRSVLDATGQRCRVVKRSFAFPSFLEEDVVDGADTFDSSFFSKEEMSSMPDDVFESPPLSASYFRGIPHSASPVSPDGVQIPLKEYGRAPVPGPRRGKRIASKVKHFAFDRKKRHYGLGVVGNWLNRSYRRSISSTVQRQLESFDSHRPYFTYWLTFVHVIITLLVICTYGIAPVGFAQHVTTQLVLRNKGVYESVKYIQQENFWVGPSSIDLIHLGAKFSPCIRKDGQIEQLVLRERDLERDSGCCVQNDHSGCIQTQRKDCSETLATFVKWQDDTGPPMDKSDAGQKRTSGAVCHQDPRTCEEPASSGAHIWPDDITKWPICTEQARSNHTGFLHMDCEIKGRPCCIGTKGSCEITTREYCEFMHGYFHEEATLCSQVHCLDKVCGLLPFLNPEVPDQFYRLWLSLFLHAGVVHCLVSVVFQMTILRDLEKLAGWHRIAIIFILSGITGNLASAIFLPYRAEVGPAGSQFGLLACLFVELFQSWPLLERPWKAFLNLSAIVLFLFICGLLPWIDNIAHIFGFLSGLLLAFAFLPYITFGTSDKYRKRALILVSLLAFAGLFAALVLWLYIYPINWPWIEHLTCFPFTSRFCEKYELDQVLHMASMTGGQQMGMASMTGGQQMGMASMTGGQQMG
The experiment can be described thus: FACS on MEF-DKO cells expressing the variant, 3 µg/ml antibody. The method in brief: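 Pelleted cells are resuspended in antibody at 3 μg/ml and kept on ice 1 hour, washed, then incubated with PE goat anti-mouse IgG F(ab′)2 diluted 1:100 on ice for 1 hour protected from light, washed again and analysed by flow cytometry.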
On to B1, for which the “loss of binding vs wild type” value is at least 30%. For the molecule B2, the “loss of binding vs wild type” value was at least 60%.

B3: the “loss of binding vs wild type” value was at least 60%. With B4, the “loss of binding vs wild type” value was at least 95%.

Take B5: the “loss of binding vs wild type” value was at least 60%. On the same count and under the same terms, the figure for B6 is at least 60%.

Regarding B7, the “loss of binding vs wild type” value is at least 95%. On the same count and under the same terms, the value for B8 was at least 30%.

The target of another experiment is T2, hiR2-FL-M534-T7 (deletion of M534) (human, UniProt Q6PJF5 1-856).
T2 construct: single amino acid deletion
T2 sequence: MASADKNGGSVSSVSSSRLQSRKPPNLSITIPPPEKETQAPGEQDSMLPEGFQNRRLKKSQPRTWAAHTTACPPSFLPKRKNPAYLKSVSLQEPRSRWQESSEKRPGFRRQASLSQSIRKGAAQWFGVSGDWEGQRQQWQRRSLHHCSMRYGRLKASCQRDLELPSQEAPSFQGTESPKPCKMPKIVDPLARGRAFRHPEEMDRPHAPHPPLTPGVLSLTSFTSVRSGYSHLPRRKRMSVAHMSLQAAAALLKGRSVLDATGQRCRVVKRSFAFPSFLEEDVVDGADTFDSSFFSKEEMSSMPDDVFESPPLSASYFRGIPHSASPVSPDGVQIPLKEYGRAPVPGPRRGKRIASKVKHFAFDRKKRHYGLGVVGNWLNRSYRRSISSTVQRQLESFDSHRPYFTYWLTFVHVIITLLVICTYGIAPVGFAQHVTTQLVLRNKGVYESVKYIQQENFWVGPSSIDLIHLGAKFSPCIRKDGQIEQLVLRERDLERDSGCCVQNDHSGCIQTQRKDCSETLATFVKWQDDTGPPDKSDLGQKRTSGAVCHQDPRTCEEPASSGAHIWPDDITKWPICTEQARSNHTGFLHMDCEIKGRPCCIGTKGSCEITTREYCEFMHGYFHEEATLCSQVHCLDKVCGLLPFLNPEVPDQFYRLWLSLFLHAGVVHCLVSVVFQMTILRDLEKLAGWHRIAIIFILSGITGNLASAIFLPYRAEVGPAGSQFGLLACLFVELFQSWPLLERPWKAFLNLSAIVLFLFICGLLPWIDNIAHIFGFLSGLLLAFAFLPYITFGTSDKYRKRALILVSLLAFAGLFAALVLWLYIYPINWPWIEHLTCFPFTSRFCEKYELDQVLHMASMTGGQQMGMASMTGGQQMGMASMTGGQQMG
The experiment can be described thus: FACS on MEF-DKO cells.
As to B9, the binding result is given as “no binding (tested: 3 µg/ml)”. Still for that read-out and setting: the value for B1 was “no binding (tested: 3 µg/ml)”; that for B2 was “no binding (tested: 3 µg/ml)”; that for B3 was “no binding (tested: 3 µg/ml)”. On the same count and under the same terms, the entry for B4 is “no binding (tested: 3 µg/ml)”; for B5 it is “no binding (tested: 3 µg/ml)”; for B6 it is “no binding (tested: 3 µg/ml)”. For the molecule B7, the binding result is given as “no binding (tested: 3 µg/ml)”.

Source of the values: patent US20240287172A1 (SCIRHOM, published 2024).
